The values that follow come from patent US20250340636A1 (Memorial Sloan Kettering, published 2025).

The target of experiment [1] is T1, soluble cynomolgus monkey L1CAM, His-tagged, monomeric (cynomolgus monkey, UniProt A0A2K5URB5 20-1120).
T1 construct: also called cyL1CAM protein; cynomolgus L1CAM-His
Briefly: BLI (Octet Red96e), His-tagged cynomolgus L1CAM on Ni-NTA biosensors, mAb as analyte, 1:1 fit. The method, then:
(§1) Cross-reactivity to Cynomolgus Monkey L1CAM. Affinity to cynomolgus L1CAM was measured by BLI using an Octet Red96e instrument. […] The data was prepared by reference well subtraction, and response curves were globally fit to a 1:1 Langmuir binding model.

Experiment [2] has as its target T2, extracellular domain of human L1CAM (isoform 1) fused to a poly-histidine tag via its carboxy terminus (human, UniProt P32004 20-1120).
T2 construct: Bought (Creative Biomart); also called L1CAM-His; huL1CAM protein
Briefly: BLI (Octet Red96e), His-tagged human L1CAM on Ni-NTA biosensors, mAb as analyte, 1:1 fit. As for the experimental part:
(§2) Binding to L1CAM in Solution. Affinity to human L1CAM was measured by BLI using an Octet Red96e instrument. […] The data was prepared by reference well subtraction, and response curves were globally fit to a 1:1 Langmuir binding model.

Experiment [3] concerns the target T3, human L1CAM on cells (human, UniProt P32004 20-1257).
T3 construct: Overexpressed on stably transfected HEK293T cells or endogenous on MCF-7 and MDA-MB-231 cells; also called HEK293T-hL1CAM
Nature of the experiment: summary table; binding to cells overexpressing human L1CAM (HEK293T). The method, then:
(§3) Binding to L1CAM on Cells. […] Cells were then incubated with an AlexaFluor 647 goat anti-human Fc secondary antibody. After washing, the stained cells were analyzed by flow cytometry.
(§4) The binding curves for each antibody and cell line normalized to secondary antibody only staining (MFI ratio) are shown in FIGS. 14A-14C. EC50 values were determined by non-linear regression (Table 70). […] It is possible that differences in the conformation and oligomerization of L1CAM, depending on the surface expression level, contributed to the binding pattern. […] An avidity effect due to high levels of L1CAM surface expression may have contributed to the strong binding observed in this experiment.

The target in experiment [4] is T4, soluble mouse L1CAM (monomer), His-tagged (mouse, UniProt P11627 20-1123, limits assumed).
T4 construct: read as mouse
T4 sequence (P11627 20-1123 limits assumed): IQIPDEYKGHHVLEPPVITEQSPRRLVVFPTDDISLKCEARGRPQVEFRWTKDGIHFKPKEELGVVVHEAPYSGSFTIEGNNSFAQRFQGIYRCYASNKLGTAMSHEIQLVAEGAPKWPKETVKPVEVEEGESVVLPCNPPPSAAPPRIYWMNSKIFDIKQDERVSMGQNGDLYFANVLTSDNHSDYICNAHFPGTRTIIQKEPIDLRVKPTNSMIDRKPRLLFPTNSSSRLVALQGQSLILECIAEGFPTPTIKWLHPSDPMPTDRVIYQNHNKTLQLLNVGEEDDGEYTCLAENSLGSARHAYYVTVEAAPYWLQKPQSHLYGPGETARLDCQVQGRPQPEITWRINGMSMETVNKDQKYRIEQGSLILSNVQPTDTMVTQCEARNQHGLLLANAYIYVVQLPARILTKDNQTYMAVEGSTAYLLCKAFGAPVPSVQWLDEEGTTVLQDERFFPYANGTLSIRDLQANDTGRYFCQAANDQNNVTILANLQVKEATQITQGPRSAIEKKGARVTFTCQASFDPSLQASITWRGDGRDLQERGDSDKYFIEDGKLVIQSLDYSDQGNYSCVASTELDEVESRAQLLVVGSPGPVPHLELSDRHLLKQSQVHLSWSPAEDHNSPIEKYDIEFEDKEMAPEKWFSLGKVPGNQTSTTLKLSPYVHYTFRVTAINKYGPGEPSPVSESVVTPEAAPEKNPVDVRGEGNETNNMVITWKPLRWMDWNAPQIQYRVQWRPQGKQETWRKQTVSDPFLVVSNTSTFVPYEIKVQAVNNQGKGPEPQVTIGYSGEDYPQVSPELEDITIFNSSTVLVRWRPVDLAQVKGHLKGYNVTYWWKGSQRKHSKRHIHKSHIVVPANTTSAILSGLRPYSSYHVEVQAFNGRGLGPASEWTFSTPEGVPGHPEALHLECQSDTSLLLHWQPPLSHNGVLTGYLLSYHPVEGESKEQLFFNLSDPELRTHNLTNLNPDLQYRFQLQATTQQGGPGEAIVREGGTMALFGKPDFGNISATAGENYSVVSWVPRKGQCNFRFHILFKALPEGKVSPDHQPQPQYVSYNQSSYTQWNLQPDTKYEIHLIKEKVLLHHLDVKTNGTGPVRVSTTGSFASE
Briefly: summary table; soluble mouse protein (row printed as 'mouse CD40 (monomer)', read as mouse L1CAM). As for the experimental part: (§5) Cross-reactivity to Mouse L1CAM. Affinity to mouse L1CAM was measured by BLI using an Octet Red96e instrument. […] The data was prepared by reference well subtraction, and response curves were globally fit to a 1:1 Langmuir binding model.

The target of experiment [5] is T2, extracellular domain of human L1CAM …. Briefly: summary table; binding to soluble human L1CAM (monomer). The method, then: as §2
Experiment [6] addresses T1, soluble cynomolgus monkey L1CAM, …. Nature of the experiment: summary table; soluble cynomolgus monkey L1CAM (monomer). As for the experimental part: as §1
Experiment [7] shares this target. Nature of the experiment: BLI, cynomolgus against human L1CAM-His. As for the experimental part: as §1
On the technique in general: BLI is a label-free optical method that tracks binding on a fibre tip over time.

Experiment [8] has as its target T4, soluble mouse L1CAM (monomer), …. Nature of the experiment: BLI (Octet Red96e), His-tagged mouse L1CAM on Ni-NTA biosensors, mAb as analyte, 1:1 fit. The method, then: as §5
In experiment [9] the target is T3, human L1CAM on cells. Nature of the experiment: summary table; binding to cells with endogenous L1CAM (MCF-7). As for the experimental part: as §3, §4

T2 sequence (P32004 20-1120): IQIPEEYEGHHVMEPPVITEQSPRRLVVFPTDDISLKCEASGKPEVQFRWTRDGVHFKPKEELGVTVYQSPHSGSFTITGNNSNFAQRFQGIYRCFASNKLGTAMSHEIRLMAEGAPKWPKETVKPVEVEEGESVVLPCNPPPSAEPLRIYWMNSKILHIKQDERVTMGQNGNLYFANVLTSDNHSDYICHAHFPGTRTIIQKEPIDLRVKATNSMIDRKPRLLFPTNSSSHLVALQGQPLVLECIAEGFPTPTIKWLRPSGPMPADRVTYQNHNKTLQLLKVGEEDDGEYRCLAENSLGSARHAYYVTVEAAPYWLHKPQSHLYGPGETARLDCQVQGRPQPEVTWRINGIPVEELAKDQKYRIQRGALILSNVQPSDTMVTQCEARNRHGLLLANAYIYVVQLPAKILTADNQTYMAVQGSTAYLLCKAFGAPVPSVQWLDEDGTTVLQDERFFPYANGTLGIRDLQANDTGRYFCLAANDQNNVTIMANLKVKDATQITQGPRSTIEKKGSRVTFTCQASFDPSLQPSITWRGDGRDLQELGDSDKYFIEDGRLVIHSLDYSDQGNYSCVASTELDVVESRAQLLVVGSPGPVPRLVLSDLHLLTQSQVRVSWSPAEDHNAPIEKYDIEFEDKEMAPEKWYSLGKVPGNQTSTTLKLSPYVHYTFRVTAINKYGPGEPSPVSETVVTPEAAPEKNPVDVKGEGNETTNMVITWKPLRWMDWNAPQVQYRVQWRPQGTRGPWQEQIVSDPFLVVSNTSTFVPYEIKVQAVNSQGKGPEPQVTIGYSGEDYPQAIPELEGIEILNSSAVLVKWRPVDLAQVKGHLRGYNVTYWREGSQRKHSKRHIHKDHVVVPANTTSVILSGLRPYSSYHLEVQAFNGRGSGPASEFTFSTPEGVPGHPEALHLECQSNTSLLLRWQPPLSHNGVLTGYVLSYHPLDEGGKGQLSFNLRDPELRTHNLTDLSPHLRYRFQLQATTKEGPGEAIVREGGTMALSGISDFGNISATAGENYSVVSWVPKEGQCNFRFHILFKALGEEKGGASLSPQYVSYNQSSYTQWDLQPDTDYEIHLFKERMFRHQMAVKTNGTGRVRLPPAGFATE
T3 sequence (P32004 20-1257): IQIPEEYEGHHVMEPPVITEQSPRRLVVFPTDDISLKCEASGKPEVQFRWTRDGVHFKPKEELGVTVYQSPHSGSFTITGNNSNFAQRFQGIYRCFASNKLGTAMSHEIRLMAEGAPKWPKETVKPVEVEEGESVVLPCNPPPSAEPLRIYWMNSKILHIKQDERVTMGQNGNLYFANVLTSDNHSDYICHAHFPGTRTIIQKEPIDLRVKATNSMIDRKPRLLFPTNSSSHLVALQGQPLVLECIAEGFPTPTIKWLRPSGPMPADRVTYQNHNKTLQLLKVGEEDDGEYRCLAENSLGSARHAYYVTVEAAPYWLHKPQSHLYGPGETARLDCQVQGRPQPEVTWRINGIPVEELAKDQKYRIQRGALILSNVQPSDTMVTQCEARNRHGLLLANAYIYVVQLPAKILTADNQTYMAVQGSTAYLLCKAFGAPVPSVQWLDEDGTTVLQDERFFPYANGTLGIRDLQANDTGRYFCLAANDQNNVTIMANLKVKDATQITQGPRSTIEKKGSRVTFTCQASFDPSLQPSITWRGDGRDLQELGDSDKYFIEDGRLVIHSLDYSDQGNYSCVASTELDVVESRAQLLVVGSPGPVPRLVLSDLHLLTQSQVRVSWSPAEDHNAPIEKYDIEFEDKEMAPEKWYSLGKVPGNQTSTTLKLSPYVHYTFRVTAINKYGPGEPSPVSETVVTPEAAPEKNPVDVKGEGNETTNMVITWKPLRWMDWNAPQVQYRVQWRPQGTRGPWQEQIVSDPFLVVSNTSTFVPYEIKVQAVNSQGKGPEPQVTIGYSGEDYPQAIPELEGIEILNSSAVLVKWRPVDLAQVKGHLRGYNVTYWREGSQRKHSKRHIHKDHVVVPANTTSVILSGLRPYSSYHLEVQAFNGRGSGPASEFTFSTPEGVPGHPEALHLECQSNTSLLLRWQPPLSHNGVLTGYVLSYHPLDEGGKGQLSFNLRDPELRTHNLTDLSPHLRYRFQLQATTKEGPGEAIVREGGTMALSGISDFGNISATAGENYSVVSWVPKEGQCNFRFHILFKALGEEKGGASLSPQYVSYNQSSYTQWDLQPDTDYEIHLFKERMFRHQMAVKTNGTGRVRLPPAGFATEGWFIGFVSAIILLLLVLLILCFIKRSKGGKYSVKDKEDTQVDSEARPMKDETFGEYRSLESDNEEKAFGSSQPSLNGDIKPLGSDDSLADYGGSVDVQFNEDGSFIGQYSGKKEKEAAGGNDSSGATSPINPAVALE

B1: TDI-Y-005 (antibody, human IgG1, kappa, V domains shown)
VH: EVQMVESGGGLVQPGGSLRLSCAAPGFIFSSYNMNWVRQAPGKGLEWVSYISSSSSTTYYADSVKGRFTISRDNAKNSLYLQMNSLRDEDTAVYYCASLYSGYDYYYYYGMDVWGQGTTVTVSS
VL: DIVMTQTPLSSPVSLGQPASISCRSSQSLVHSDGNTYLSWLQQRPGQPPRVLIYKISKRFSGVPDRFSGSGAGTDFTLKISRVEAEDVGVYYCMQATQFPFTFGPGTKVDIKR
notes: Human IgG1, kappa; also called human 14A10 mAb; fully human 14A10 mAb
Turning to B1, the Kd (usually a measure of binding affinity in units of concentration) in experiment [1] turned out to be 1.3 nM; in experiment [2], 4.3 nM; in experiment [4], 34 nM; in experiment [5], 4.3 nM; in experiment [6] it was 1.3 nM; in experiment [8], 34 nM. In addition, the koff (as a rule, a measure of how fast the partners let go of each other) in experiment [1] came to 0.00012 s⁻¹; in experiment [2], 0.00014 s⁻¹; in [4], 0.0011 s⁻¹; in experiment [5], 0.00014 s⁻¹; in experiment [6], 0.00012 s⁻¹; in [8], 0.0011 s⁻¹. Besides, the kon (as a rule, the rate constant with which the complex forms) in experiment [1] turned out to be 93000 M⁻¹ s⁻¹; in experiment [2], 33000 M⁻¹ s⁻¹; in experiment [4] it was 31000 M⁻¹ s⁻¹; in experiment [5] it was 33000 M⁻¹ s⁻¹; in [6], 93000 M⁻¹ s⁻¹; in experiment [8], 31000 M⁻¹ s⁻¹. The concentration giving a half-maximal response (EC50) (usually the concentration giving half of the maximal effect) is 2 nM in experiment [3] and 2.5 nM in experiment [9]. Besides, the “fold difference of KD against human L1CAM” value in [7] is not above 3.3 fold.
